The text below walks through data of PMC9076686, “Calcium bursts allow rapid reorganization of EFhD2/Swip-1 cross-linked actin networks in epithelial wound closure” (Nature Communications, 2022).

For experiment [1], the target named is T1, Actin from rabbit skeletal muscle (F-actin) (rabbit, UniProt P68135 1-377). Description: co-sedimentation; high-speed pelleting at 200,000 x g, 4 °C, 1 h; 8 µM G-actin polymerised with increasing Swip-1 in 1x KMEI (10 mM imidazole pH 7.0, 50 mM KCl, 1 mM MgCl2, 1 mM EGTA) for 2 h at 4 °C; absence of calcium; fit to independent, identical binding sites. Conditions: both partners purified.

For experiment [2], the target named is T1, Actin from rabbit skeletal muscle …. Description: co-sedimentation; high-speed pelleting at 200,000 x g, 4 °C, 1 h; 8 µM G-actin polymerised with increasing Swip-1 in 1x KMI (10 mM imidazole pH 7.0, 50 mM KCl, 1 mM MgCl2) with 1 mM CaCl2 for 2 h at 4 °C; presence of calcium; fit to independent, identical binding sites. To be noted: both partners purified.

B1: Drosophila Swip-1 (EFhD2/Swip-1), recombinant wild type (natural protein)
chain: MSVSSNASSASNKDSVDSPSSTTNTDSSELTHILNRRQEIMESQEAGIEVRRTYKVVNVYTDFPEFSRNQIKDYQKTFNTYDTARDGFLDLQELKFMMEKLGAPQTHLGLKQMIAEVDEDNDGKISFREFLLIFRKAQAGELDSDSGLNQLARLTEVDVEQVGVSGAKNFFEAKIEQQLRTNKFHDEIRAEQEERRREEEERAQRRQQFQQRAAIFQ
notes: residues left after PreScission cleavage are not described; source: E. coli Rossetta 2, purified (glutathione agarose, GST cleaved by PreScission protease, size-exclusion chromatography)
Regarding B1, in experiment [1], the Kd (in general, the constant that tells how readily two partners part at equilibrium) came out at 4.3 ± 1.3 µM and the “stoichiometry N” value is ~1 Swip-1:actin. For the same molecule, in experiment [2], the Kd stood at 900 ± 100 nM and the “stoichiometry N” value was ~0.5 Swip-1:actin.
